Results on 20 molecules are retold here after patent US20130012432A1 (Novo Nordisk, published 2013).

Positions of bridges follow the written chain, without caps; N, C: chain ends. Non-standard residues stand in square brackets, D forms with d. Groups on a side chain read outwards from the residue. Primed or numbered codes have the meaning given here. *: point of attachment. X2 = (2-(2-(16-(tetrazol-5-yl)hexadecanoylamino)ethoxy)ethoxy)acetyl, O=C(CCCCCCCCCCCCCCCc1nn[nH]n1)NCCOCCOCC(=O)*; X5 = NH(2-(2-(2-(17-carboxyheptadecanoylamino)ethoxy)ethoxy)ethyl), O=C(O)CCCCCCCCCCCCCCCCC(=O)NCCOCCOCCN*; biscarboxymethyl = Lys(biscarboxymethyl) = Nepsilon-bis(carboxymethyl)-L-lysine; bis(carboxymethyl) = Lys(biscarboxymethyl) = N6-bis(carboxymethyl)-L-lysine; Palmitoyl(16-(5-tetrazolyl)) = O=C(CCCCCCCCCCCCCCCc1nnn[nH]1)*; biscarboxymethyl(3) = Nepsilon-bis(carboxymethyl) on Lys; Lys(CH2CO2H)2 = N[C@@H](CCCCN(CC(=O)O)CC(=O)O)C(=O)O; C17 diacid = O=C(O)CCCCCCCCCCCCCCCC(=O)*; C16 diacid = O=C(O)CCCCCCCCCCCCCCC(=O)*; C14 diacid = O=C(O)CCCCCCCCCCCCC(=O)*; Hyp = O=C(O)[C@@H]1C[C@@H](O)CN1; NTA = O=C(O)CN(CC(=O)O)CC(=O)*; hCys = N[C@@H](CCS)C(=O)O; Orn = NCCC[C@H](N)C(=O)O; Dab = NCC[C@H](N)C(=O)O; Dap = NC[C@H](N)C(=O)O; AEEA = NCCOCCOCC(=O)O

First the molecules themselves.
B1: Ac-c[homoCys-His-D-Phe-Arg-Trp-Cys]-Pro-Pro-Lys-Asp-Lys(BCMA)-Lys[(2-{2-[16-(tetrazol-5-yl)hexadecanoylamino]ethoxy}ethoxy)acetyl]-NH2 (peptide)
peptide: Ac-[hCys]H[dF]RWCPPKDK(NTA)K([AEEA-Palmitoyl(16-(5-tetrazolyl))])-NH2
modifications: disulfide 1-6
SMILES: CC(=O)N[C@H]1CCSSC[C@@H](C(=O)N2CCC[C@H]2C(=O)N2CCC[C@H]2C(=O)N[C@@H](CCCCN)C(=O)N[C@@H](CC(=O)O)C(=O)N[C@@H](CCCCNC(=O)CN(CC(=O)O)CC(=O)O)C(=O)N[C@@H](CCCCNC(=O)COCCOCCNC(=O)CCCCCCCCCCCCCCCc2nnn[nH]2)C(N)=O)NC(=O)[C@H](Cc2c[nH]c3ccccc23)NC(=O)[C@H](CCCNC(=N)N)NC(=O)[C@@H](Cc2ccccc2)NC(=O)[C@H](Cc2c[nH]cn2)NC1=O
B2: Ac-c[Lys-His-D-Phe-Arg-Trp-Asp]-Pro-Ser-Ser-Ser-Lys(biscarboxymethyl)-Ser-Ser-NH(2-{2-[2-(17-carboxyheptadecanoylamino)ethoxy]ethoxy}ethyl) (peptide)
peptide: Ac-KH[dF]RWDPSSS[Lys(CH2CO2H)2]SS-X5
modifications: lactam 1-6
SMILES: CC(=O)N[C@H]1CCCCNC(=O)C[C@@H](C(=O)N2CCC[C@H]2C(=O)N[C@@H](CO)C(=O)N[C@@H](CO)C(=O)N[C@@H](CO)C(=O)N[C@@H](CCCCN(CC(=O)O)CC(=O)O)C(=O)N[C@@H](CO)C(=O)N[C@@H](CO)C(=O)NCCOCCOCCNC(=O)CCCCCCCCCCCCCCCCC(=O)O)NC(=O)[C@H](Cc2c[nH]c3ccccc23)NC(=O)[C@H](CCCNC(=N)N)NC(=O)[C@@H](Cc2ccccc2)NC(=O)[C@H](Cc2c[nH]cn2)NC1=O
B3: Ac-c[homoCys-His-D-Phe-Arg-Trp-Cys]-Pro-Pro-Lys-Asp-Dap(BCMA)-Lys[(2-{2-[16-(tetrazol-5-yl)hexadecanoylamino]ethoxy}ethoxy)acetyl]-OH (peptide)
peptide: Ac-[hCys]H[dF]RWCPPKD[Dap](NTA)K([AEEA-Palmitoyl(16-(5-tetrazolyl))])-OH
modifications: disulfide 1-6
SMILES: CC(=O)N[C@H]1CCSSC[C@@H](C(=O)N2CCC[C@H]2C(=O)N2CCC[C@H]2C(=O)N[C@@H](CCCCN)C(=O)N[C@@H](CC(=O)O)C(=O)N[C@@H](CNC(=O)CN(CC(=O)O)CC(=O)O)C(=O)N[C@@H](CCCCNC(=O)COCCOCCNC(=O)CCCCCCCCCCCCCCCc2nnn[nH]2)C(=O)O)NC(=O)[C@H](Cc2c[nH]c3ccccc23)NC(=O)[C@H](CCCNC(=N)N)NC(=O)[C@@H](Cc2ccccc2)NC(=O)[C@H](Cc2c[nH]cn2)NC1=O
B4: Ac-c[Lys-His-D-Phe-Arg-Trp-Asp]-Pro-Pro-His-Glu-Glu-Ser-Ser-Glu-Lys({2-[2-(16-carboxyhexadecanoylamino)ethoxy]ethoxy}acetyl)-NH2 (peptide)
peptide: Ac-KH[dF]RWDPPHEESSEK([AEEA-C17 diacid])-NH2
modifications: lactam 1-6
SMILES: CC(=O)N[C@H]1CCCCNC(=O)C[C@@H](C(=O)N2CCC[C@H]2C(=O)N2CCC[C@H]2C(=O)N[C@@H](Cc2c[nH]cn2)C(=O)N[C@@H](CCC(=O)O)C(=O)N[C@@H](CCC(=O)O)C(=O)N[C@@H](CO)C(=O)N[C@@H](CO)C(=O)N[C@@H](CCC(=O)O)C(=O)N[C@@H](CCCCNC(=O)COCCOCCNC(=O)CCCCCCCCCCCCCCCC(=O)O)C(N)=O)NC(=O)[C@H](Cc2c[nH]c3ccccc23)NC(=O)[C@H](CCCNC(=N)N)NC(=O)[C@@H](Cc2ccccc2)NC(=O)[C@H](Cc2c[nH]cn2)NC1=O
B5: Ac-c[Lys-His-D-Phe-Arg-Trp-Asp]-Pro-Pro-His-Glu-Lys(biscarboxymethyl)-Lys({2-[2-(16-carboxyhexadecanoylamino)ethoxy]ethoxy}acetyl)-NH2 (peptide)
peptide: Ac-KH[dF]RWDPPHE[Lys(CH2CO2H)2]K([AEEA-C17 diacid])-NH2
modifications: lactam 1-6
SMILES: CC(=O)N[C@H]1CCCCNC(=O)C[C@@H](C(=O)N2CCC[C@H]2C(=O)N2CCC[C@H]2C(=O)N[C@@H](Cc2c[nH]cn2)C(=O)N[C@@H](CCC(=O)O)C(=O)N[C@@H](CCCCN(CC(=O)O)CC(=O)O)C(=O)N[C@@H](CCCCNC(=O)COCCOCCNC(=O)CCCCCCCCCCCCCCCC(=O)O)C(N)=O)NC(=O)[C@H](Cc2c[nH]c3ccccc23)NC(=O)[C@H](CCCNC(=N)N)NC(=O)[C@@H](Cc2ccccc2)NC(=O)[C@H](Cc2c[nH]cn2)NC1=O
B6: Ac-c[Cys-Glu-His-D-Phe-Arg-Trp-Gly-Cys]-Pro-Pro-Lys-Glu-Lys(biscarboxymethyl)-Lys({2-[2-(15-carboxypentadecanoylamino)ethoxy]ethoxy}acetyl)-NH2 (peptide)
peptide: Ac-CEH[dF]RWGCPPKE[Lys(CH2CO2H)2]K([AEEA-C16 diacid])-NH2
modifications: disulfide 1-8
SMILES: CC(=O)N[C@H]1CSSC[C@@H](C(=O)N2CCC[C@H]2C(=O)N2CCC[C@H]2C(=O)N[C@@H](CCCCN)C(=O)N[C@@H](CCC(=O)O)C(=O)N[C@@H](CCCCN(CC(=O)O)CC(=O)O)C(=O)N[C@@H](CCCCNC(=O)COCCOCCNC(=O)CCCCCCCCCCCCCCC(=O)O)C(N)=O)NC(=O)CNC(=O)[C@H](Cc2c[nH]c3ccccc23)NC(=O)[C@H](CCCNC(=N)N)NC(=O)[C@@H](Cc2ccccc2)NC(=O)[C@H](Cc2c[nH]cn2)NC(=O)[C@H](CCC(=O)O)NC1=O
B7: Ac-c[Cys-Glu-His-D-Phe-Arg-Trp-Cys]-Pro-Pro-Lys-Glu-Lys(biscarboxymethyl)-Lys[(2-{2-[16-(tetrazol-5-yl)hexadecanoylamino]ethoxy}ethoxy)acetyl]-NH2 (peptide)
peptide: Ac-CEH[dF]RWCPPKE[Lys(CH2CO2H)2]K([AEEA-Palmitoyl(16-(5-tetrazolyl))])-NH2
modifications: disulfide 1-7
SMILES: CC(=O)N[C@H]1CSSC[C@@H](C(=O)N2CCC[C@H]2C(=O)N2CCC[C@H]2C(=O)N[C@@H](CCCCN)C(=O)N[C@@H](CCC(=O)O)C(=O)N[C@@H](CCCCN(CC(=O)O)CC(=O)O)C(=O)N[C@@H](CCCCNC(=O)COCCOCCNC(=O)CCCCCCCCCCCCCCCc2nnn[nH]2)C(N)=O)NC(=O)[C@H](Cc2c[nH]c3ccccc23)NC(=O)[C@H](CCCNC(=N)N)NC(=O)[C@@H](Cc2ccccc2)NC(=O)[C@H](Cc2c[nH]cn2)NC(=O)[C@H](CCC(=O)O)NC1=O
B8: Ac-c[homoCys-His-D-Phe-Arg-Trp-Cys]-Pro-Pro-Lys-Asp-Dap(BCMA)-Lys({2-[2-(13-carboxytridecanoylamino)ethoxy]ethoxy}acetyl)-NH2 (peptide)
peptide: Ac-[hCys]H[dF]RWCPPKD[Dap](NTA)K([AEEA-C14 diacid])-NH2
modifications: disulfide 1-6
SMILES: CC(=O)N[C@H]1CCSSC[C@@H](C(=O)N2CCC[C@H]2C(=O)N2CCC[C@H]2C(=O)N[C@@H](CCCCN)C(=O)N[C@@H](CC(=O)O)C(=O)N[C@@H](CNC(=O)CN(CC(=O)O)CC(=O)O)C(=O)N[C@@H](CCCCNC(=O)COCCOCCNC(=O)CCCCCCCCCCCCC(=O)O)C(N)=O)NC(=O)[C@H](Cc2c[nH]c3ccccc23)NC(=O)[C@H](CCCNC(=N)N)NC(=O)[C@@H](Cc2ccccc2)NC(=O)[C@H](Cc2c[nH]cn2)NC1=O
B9: Ac-c[homoCys-Gln-D-Phe-Arg-Trp-Cys]-Pro-Pro-Lys-Asp-Dap(BCMA)-Lys[(2-{2-[16-(tetrazol-5-yl)hexadecanoylamino]ethoxy}ethoxy)acetyl]-NH2 (peptide)
peptide: Ac-[hCys]Q[dF]RWCPPKD[Dap](NTA)K([AEEA-Palmitoyl(16-(5-tetrazolyl))])-NH2
modifications: disulfide 1-6
SMILES: CC(=O)N[C@H]1CCSSC[C@@H](C(=O)N2CCC[C@H]2C(=O)N2CCC[C@H]2C(=O)N[C@@H](CCCCN)C(=O)N[C@@H](CC(=O)O)C(=O)N[C@@H](CNC(=O)CN(CC(=O)O)CC(=O)O)C(=O)N[C@@H](CCCCNC(=O)COCCOCCNC(=O)CCCCCCCCCCCCCCCc2nnn[nH]2)C(N)=O)NC(=O)[C@H](Cc2c[nH]c3ccccc23)NC(=O)[C@H](CCCNC(=N)N)NC(=O)[C@@H](Cc2ccccc2)NC(=O)[C@H](CCC(N)=O)NC1=O
B10: Ac-c[homoCys-Hyp-D-Phe-Arg-Trp-Cys]-Pro-Pro-Lys-Asp-Dap(BCMA)-Lys[(2-{2-[16-(tetrazol-5-yl)hexadecanoylamino]ethoxy}ethoxy)acetyl]-NH2 (peptide)
peptide: Ac-[hCys][Hyp][dF]RWCPPKD[Dap](NTA)K([AEEA-Palmitoyl(16-(5-tetrazolyl))])-NH2
modifications: disulfide 1-6
SMILES: CC(=O)N[C@H]1CCSSC[C@@H](C(=O)N2CCC[C@H]2C(=O)N2CCC[C@H]2C(=O)N[C@@H](CCCCN)C(=O)N[C@@H](CC(=O)O)C(=O)N[C@@H](CNC(=O)CN(CC(=O)O)CC(=O)O)C(=O)N[C@@H](CCCCNC(=O)COCCOCCNC(=O)CCCCCCCCCCCCCCCc2nnn[nH]2)C(N)=O)NC(=O)[C@H](Cc2c[nH]c3ccccc23)NC(=O)[C@H](CCCNC(=N)N)NC(=O)[C@@H](Cc2ccccc2)NC(=O)[C@@H]2C[C@@H](O)CN2C1=O

The target in the experiment is T1, human MC4 receptor (human, UniProt P32245 1-332).
T1 construct: whole, on cells; Assayed as membranes of BHK cells stably expressing the receptor; also called melanocortin receptor subtype 4; melanocortin receptor 4
T1 sequence (P32245 whole entry): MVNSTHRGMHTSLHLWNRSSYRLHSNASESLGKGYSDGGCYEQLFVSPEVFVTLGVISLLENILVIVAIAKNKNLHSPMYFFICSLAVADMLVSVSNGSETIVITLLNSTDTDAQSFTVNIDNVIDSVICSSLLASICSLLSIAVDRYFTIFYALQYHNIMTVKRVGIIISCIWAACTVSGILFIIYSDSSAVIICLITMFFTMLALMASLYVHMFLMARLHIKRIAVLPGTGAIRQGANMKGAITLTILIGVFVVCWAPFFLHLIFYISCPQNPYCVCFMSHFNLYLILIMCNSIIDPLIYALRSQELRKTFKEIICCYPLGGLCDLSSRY
The experiment is described as follows: 125I-NDP-α-MSH displacement, BHK-human MC4 membranes (Assay V).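 Also: Filter-retained radioactivity read by gamma counting, with affinity obtained through non-linear regression fitting of the binding curves.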
Experimental: The membranes were prepared from frozen or fresh cells that were homogenized in 20 mM HEPES pH 7.1, 5 mM MgCl₂ and 1 mg/ml bacitracin and centrifuged at 15000 rpm at 4° C., 10 min in a Sorvall RC 5B plus, SS-34 rotor. The supernatant was discarded, and the pellets were re-suspended in buffer, homogenized and centrifuged two more times. The final pellets were resuspended in the buffer mentioned above, and the protein concentration was measured and adjusted with buffer to 14 to 17 mg/ml and the membrane preparation were kept at −80° C. until assay. The assay was run directly on a dilution of this cell membrane suspension, without any further preparation. The BHK cell membranes are kept at −80° C. until assay, and the assay is run directly on a dilution of this cell membrane suspension, without further preparation. The suspension is diluted to give maximally 10% specific binding, i.e. to approx. 50-100 fold dilution. […] Test compounds were dissolved in DMSO and diluted in binding buffer. Radiolabelled ligand and membranes were diluted in binding buffer. The incubation was stopped by dilution with 2×100 μl ice-cold 0.9% NaCl. The radioactivity retained on the filters was counted using a Cobra II auto gamma counter.
The data were analysed by non-linear regression analysis of binding curves, using the Windows™ program GraphPad™ Prism (GraphPad Software, USA).
Regarding Ac-[Dab]H[dF]RWDPPREK(biscarboxymethyl(3))K([AEEA-Palmitoyl(16-(5-tetrazolyl))])-NH2 (lactam 1-6), the Ki (usually the equilibrium dissociation constant of an inhibitor or competing ligand from its target) came out at 8.45 nM.

Ac-[Dab]H[dF]RWDPPHEK(biscarboxymethyl(3))K([AEEA-Palmitoyl(16-(5-tetrazolyl))])-NH2 (lactam 1-6): the Ki turned out to be 76 nM. Compared with the last molecule, the Ki is about 9-fold higher.

Molecule Ac-[Orn]H[dF]RWEPPHEK(bis(carboxymethyl))K([AEEA-C17 diacid])-NH2 (lactam 1-6) came in with a Ki of 21.5 nM. This Ki lies about 3.5-fold lower than the previous one.

For Ac-[Dab]H[dF]RWEPPRDK(biscarboxymethyl(3))K([AEEA-Palmitoyl(16-(5-tetrazolyl))])-NH2 (lactam 1-6), the Ki worked out at 107 nM. This Ki is about 5-fold higher than that of the molecule before. With Ac-[Orn]H[dF]RWDPPHEK(biscarboxymethyl)K(X2)-NH2 (lactam 1-6) the figure was 1.43 nM; with Ac-[hCys]H[dF]RWCPPKEK(bis(carboxymethyl))K([AEEA-C16 diacid])-NH2 (disulfide 1-6), 17 nM. With B1 the figure was 0.4 nM; with Ac-[hCys]H[dF]RWCPPSEK(bis(carboxymethyl))K([AEEA-C16 diacid])-NH2 (disulfide 1-6), 70 nM. As to B2, the Ki came out at 2.75 nM. As for B3, the Ki is 6.4 nM. Molecule B4 came in with a Ki of 30 nM. In turn, B5 returned a Ki of 17 nM. This Ki is about 1.8-fold lower than that of the molecule before. With B6 the figure was 55 nM; with B7, 15 nM. B8: the affinity corresponds to a Ki of 4.2 nM. This Ki lies about 3.6-fold lower than the previous one. For Ac-[Orn]H[dF]RWEPSSSK(bis(carboxymethyl))SSK([AEEA-C17 diacid])-NH2 (lactam 1-6) the value was 6.35 nM; for B9, 1.06 nM; for B10, 0.62 nM. For the molecule Ac-EH[dF]RW[Dap]PPRDK(biscarboxymethyl(3))K([AEEA-Palmitoyl(16-(5-tetrazolyl))])-NH2 (lactam 1-6), the affinity corresponds to a Ki of 13 nM. Compared with the last molecule, the Ki is about 21-fold higher.

For the molecule Ac-DH[dF]RW[Dap]PPRDK(biscarboxymethyl(3))K([AEEA-Palmitoyl(16-(5-tetrazolyl))])-NH2 (lactam 1-6), affinity was put at a Ki of 71.5 nM.
